From article PMC5815136

T1: Ct_Rio2 (Chaetomium thermophilum? (given only as …, UniProt L0BC08 1-396))
T1 sequence: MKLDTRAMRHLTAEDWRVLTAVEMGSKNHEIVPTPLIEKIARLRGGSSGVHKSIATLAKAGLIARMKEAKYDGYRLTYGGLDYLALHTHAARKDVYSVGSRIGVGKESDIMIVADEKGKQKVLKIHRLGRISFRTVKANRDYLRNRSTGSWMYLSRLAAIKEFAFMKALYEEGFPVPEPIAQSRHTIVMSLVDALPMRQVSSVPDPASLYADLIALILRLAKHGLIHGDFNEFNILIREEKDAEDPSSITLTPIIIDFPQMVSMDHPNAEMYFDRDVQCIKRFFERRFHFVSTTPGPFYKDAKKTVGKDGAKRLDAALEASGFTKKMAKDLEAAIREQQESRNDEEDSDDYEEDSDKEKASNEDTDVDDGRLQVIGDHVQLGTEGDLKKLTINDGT

T2: Ct_Rio2 K106A (Chaetomium thermophilum? (given only as …, UniProt L0BC08 1-396, K106A))
T2 sequence: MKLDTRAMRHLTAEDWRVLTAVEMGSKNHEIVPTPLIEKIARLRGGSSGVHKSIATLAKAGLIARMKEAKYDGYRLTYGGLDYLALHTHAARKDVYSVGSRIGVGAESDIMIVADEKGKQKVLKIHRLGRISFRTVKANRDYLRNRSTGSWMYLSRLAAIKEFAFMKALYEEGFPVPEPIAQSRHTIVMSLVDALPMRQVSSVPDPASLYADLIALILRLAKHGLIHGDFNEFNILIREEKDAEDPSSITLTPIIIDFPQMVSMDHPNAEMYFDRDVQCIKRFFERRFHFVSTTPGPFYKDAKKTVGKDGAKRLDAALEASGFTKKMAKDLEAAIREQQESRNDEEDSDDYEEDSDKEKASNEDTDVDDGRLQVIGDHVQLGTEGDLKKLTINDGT


Columns and labels:
[1] = target: T1, Ct_Rio2; assay: EMSA
[2] = target: T2, Ct_Rio2 K106A; assay: EMSA

Binder | binding result [1] | binding result [2]
GGGUUAAUUUGACUCAACACAAAGAAA (structured_RNA) [h31* (h31-Stab)] | binds | binds
GGGUUAAUUUGACUCAACACGGGGAAA (structured_RNA) [h31] | binds | 
